From US10973882B2, “Methods for reducing severity of pulmonary fibrosis” (CEDARS-SINAI MEDICAL CENTER, priority 2017, dated 2021)

Assays:
[1] = tested on: CD24^−Sca-1^−AEC2s; test: 3D Matrigel organoid culture, colony-forming efficiency (CFE) of mouse AEC2s; format: cell-based
Method: Flow-sorted mouse CD24^−Sca-1^−AEC2s or human HTII-280^+AEC2s were cultured in Matrigel/medium (1:1) mixture in the presence of MLg2908 lung fibroblast cells (Barkauskas et al., 2013; Chen et al., 2012). 100 μl Matrigel/medium mix containing 3×10^3 type 2 cells and 2×10^5 MLg2908 cells were plated into each 0.4-μm Transwell insert of a 24-well plate. 400 μl of medium was added in the lower chambers. Medium was described previously (Chen et al., 2012). Matrigel was from BD Biosciences (catalog 354230). Fresh medium was changed every other day. Cultures were maintained in a humidified 37° C. and 5% CO2 incubator. Colonies were visualized with a Zeiss Axiovert40 inverted fluorescent microscope (Carl Zeiss AG, Oberkochen, Germany). The number of colonies with a diameter of ≥50 μm from each insert was counted, and the colony-forming efficiency (CFE) was determined by the number of colonies in each culture as a percentage of the number of input epithelial cells at day 12 after plating.
For culture with IL-6 protein or anti-IL-6, sorted type 2 cells were pretreated with IL-6 protein or anti-IL-6 at room temperature for 30 minutes. Type 2 cells were then mixed with fibroblasts in the Matrigel/medium mixture and plated into Transwell inserts. The same concentration of IL-6 protein or IL-6 antibody was added into the Matrigel/medium mix and into the medium placed in the lower chambers.
Healon GV was purchased from Abbott Medical Optics (Abbot Park, Ill.). Pep-1 was synthesized by Sigma-Genosys and dissolved in DMSO to form a 100 μg/μl stock solution as described previously (Jiang et al., 2005; Mummert et al., 2000). For 3D matrigel culture, sorted type 2 cells were pretreated with Healon (200 μg/ml) or pep-1 (125 μg/ml) at room temperature for 30 minutes. Higher concentrations of Healon (400 μg/ml, 600 μg/ml, and 800 μg/ml) were used for 3D matrigel culture of IPF AEC2s. Cells were then mixed with fibroblasts in Matrigel/medium mix and plated into Transwell inserts. The same concentrations of Healon or Pep-1 were added into the Matrigel/medium mix and medium that were placed in the lower chambers.
The cell-permeable STAT3 inhibitor S3I-201 was purchased from Santa Cruz Biotechnology (Dallas, Tex.) and dissolved in DMSO to form stock solution of 10 mg/ml (MW 365.36). The dose for treating type 2 cells in colony-formation assays was 50 μM and 100 μM. The same amounts of DMSO were added into the control wells. Flow-sorted type 2 cells were pretreated with the STAT3 inhibitor at 50 μM or 100 μM concentrations, and with IL-6 protein (100 ng/ml), at room temperature for 30 minutes. Cells were then mixed with fibroblasts in Matrigel/medium mix and plated into Transwell inserts. […]

[2] = tested on: human HTII-280^+AEC2s; test: 3D matrigel culture, colony-forming efficiency (CFE) of human AEC2s; format: cell-based; details: AEC2s sorted from diseased (IPF) lung; rIL-6 200 ng/ml vs medium without exogenous IL-6; FIG. 13H
Method: (§1) Recombinant mouse IL-6 protein (Catalog 406-ML/CF, R&D Systems) was supplied in 50 mM sodium acetate and 1 mM EDTA and was diluted (1:5 or more depending on the stock concentration) in sterile PBS, and 2 μg per mouse in 50 μl was injected intramuscularly at 1 day before and at 1 day and 3 days after bleomycin instillation. Control buffer was made of the same volume of 50 mM sodium acetate and 1 mM EDTA solution and PBS. Mouse anti-IL-6 (MAB406, Clone #MP5-20F3, R&D Systems) or control IgG was reconstituted with sterile PBS. 250 μg per mouse in 250 μl sterile PBS was injected intraperitoneally to mice at 1 day before and at 1 day and 3 days after bleomycin instillation. Recombinant human IL-6 protein (Catalog 206-IL-010, R&D Systems) was reconstituted with sterile PBS containing 0.1% BSA. 200 ng/ml was used for organoid culture of human AEC2s.
Single-cell suspensions from human lungs were isolated as described (Barkauskas et al., 2013). The procedures of staining the cells for flow cytometry and data analysis were described previously (Barkauskas et al., 2013; Liang et al., 2012). […] Flow cytometry was performed using a FACSCanto II flow cytometer and FACSAria III sorter (BD Immunocytometry Systems, San Jose, Calif.) and analyzed using Flow Jo 9.6.4 software (Tree Star, Ashland, Oreg.). […]

[3] = tested on: bleomycin-induced lung injury; test: Bleomycin lung injury model with rIL-6 or anti-IL-6 administration; format: in vivo, mouse
Description: Mice. Tlr4^−/− and Tlr2^−/− mice were obtained (Takeuchi et al., 1999; Kawai et al., 1999), Has2^flox/+ mice were generated using the Cre-loxP system (Li et al., 2011; Matsumoto et al., 2009), and SFTPC-Cre mice, SFTPC-CreER mice, SFTPC-GFP mice, and Rosa-Tomato^flox/flox mice were generated (Barkauskas et al., 2013; Chen et al., 2012; Eblaghie et al., 2006). All mice were backcrossed on the C57Bl/6J background for more than six generations. […] Has2^flox/flox homozygous mice were crossed with SFTPC-Cre^+ mice to generate SFTPC-Cre^+;Has2^flox/flox mice. Rosa-Tomato^flox/flox mice were crossed with SFTPC-CreER mice to generate SFTPC-CreER^+;Rosa-Tomato^flox/flox mice. Animals were randomly assigned to treatment groups, and they were age- and sex-matched. 8- to 12-week-old mice of both sexes (male:female ratio ˜1:1) were used in the bleomycin lung injury model. Animals for experiments were selected by genotype, and no blinding was performed.
Bleomycin instillation and BAL procedures were described previously (Dong et al., 2015; Lovgren et al., 2011). Under anesthesia, the trachea was surgically exposed. 1.25-5 U/kg bleomycin (Hospira, Lake Forest, Ill.) in 25 μl PBS was instilled into the mouse trachea with a 25-G needle inserted between the cartilaginous rings of the trachea. Control animals received saline alone. The tracheostomy site was sutured, and the animals were allowed to recover. Mice were euthanized at different time points, and lung tissue and BAL fluid were collected for experiments. 0.8-ml aliquots of PBS were used for lavage. Cell-free BAL fluid was stored in a −80° C. freezer for cytokine measurement.
Collagen contents in mouse lungs were measured using a conventional hydroxyproline method (Jiang et al., 2004). Lung tissues were vacuum-dried and hydrolyzed with 6 N hydrochloride acid at 120° C. overnight. Hydroxyproline content was expressed as ‘μg per lung’, unless specified otherwise. The ability of the assay to completely hydrolyze and recover hydroxyproline from collagen was confirmed using samples containing known amounts of purified collagen.
as §1
Single-cell suspensions from mouse lungs were isolated as described (Chen et al., 2012). Mouse lungs were perfused with 5 ml PBS and digested with elastase (4 U/ml; Worthington Biochemical Corporation) and DNase I (100 U/ml; Sigma) to obtain single-cell suspensions for flow cytometry. Primary antibodies to CD31, CD34, CD45, Sca-1, and CD24, and secondary antibody anti-streptavidin were all from eBioscience (San Diego, Calif.). Mouse anti-EpCAM (G8.8, catalog 118215) and anti-Ki67 (catalog 652403) were from BioLegend (San Diego, Calif.). 7-AAD was from BD Biosciences (San Diego, Calif.).
The procedures of staining the cells for flow cytometry and data analysis were described previously (Chen et al., 2012; Liang et al., 2012). In brief, cells were resuspended in Hank's balanced saline solution supplemented with 2% FBS (FBS), 10 mM HEPES, 0.1 mM EDTA, 100 IU/ml penicillin, 100 μg/ml streptomycin (HBSS+ buffer). […]

[4] = bleomycin-treated Tlr4^−/− mice, rIL-6 vs control buffer, FIG. 10G

## Cc1ccc(S(=O)(=O)OCC(=O)Nc2ccc(C(=O)O)c(O)c2)cc1 [S3I-201, reference compound]
[1]; STAT3 inhibitor 50 μM or 100 μM with IL-6 protein 100 ng/ml, FIG. 11C
  rIL6-promoted colony formation of CD24^−Sca-1^−AEC2s: abolished

B1: rIL-6: Recombinant mouse IL-6 protein (Catalog 406-ML/CF, R&D Systems), used for mouse AEC2s and in mice (protein, UniProt P08505 25-211, looked up)
Interleukin-6: FPTSQVRRGDFTEDTTPNRPVYTTSQVGGLITHVLWEIVEMRKELCNGNSDCMNNDDALAENNLKLPEIQRNDGCYQTGYNQEICLLKISSGLLEYHSYLEYMKNNLKDNKKDKARVLQRDTETLIHIFNQEVKDLHKIVLPTPISNALLTDKLESQKEWLRTKTIQFILKSLEEFLKVTLRSTRQT
[2]
  CFEs of HTII-280^+AEC2s: markedly increased
[3]; Tlr4^−/− mice, bleomycin and rIL-6 vs bleomycin alone, FIG. 10H
  hydroxyproline content in the lungs: lower
[3]; bleomycin day 7 Tlr4^−/− mice, rIL-6 vs buffer, FIG. 11D
  AEC2 apoptosis: did not affect
[3]; bleomycin day 7 Tlr4^−/− mice, rIL-6 vs buffer, FIG. 11E
  inflammatory cell infiltration (BAL cell counts): did not affect
[3]; bleomycin-injured SFTPC-Cre;Has2^flox/flox mice, rIL-6 vs buffer, FIG. 10I
  hydroxyproline content in the lungs: lower hydroxyproline content
[3]; bleomycin-injured Tlr4^−/− mice, rIL-6 vs buffer, 21 days, FIG. 11F
  survival: increased survival
[3]; bleomycin-injured WT mice, anti-IL-6 250 μg per mouse i.p. vs control IgG (FIG. 11G), rIL-6 vs bleomycin alone (data not shown)
  survival / mortality: did not alter
[3]; bleomycin-injured WT mice, anti-IL-6 vs control IgG, rIL-6 vs bleomycin alone, data not shown
  hydroxyproline levels: did not alter
[3]; bleomycin-treated Tlr4^−/− mice, rIL-6 2 μg per mouse i.m. day −1, 1, 3, vs control buffer, FIG. 10G
  recovery of CD24^−Sca-1^−AEC2s: more recovery
[3]; [4]
  Ki67 staining of CD24^−Sca-1^−AEC2s: greater Ki67 staining
  concentration of total BALF proteins: lower concentration
[1]; AEC2s from bleomycin-treated SFTPC-Cre;Has2^flox/flox mice, rIL-6 100 ng/ml, FIG. 10F
  CFEs of CD24^−Sca-1^−AEC2s: promoted
[1]; AEC2s from bleomycin-treated Tlr4^−/− mice, rIL-6 100 ng/ml, FIG. 10E
  CFEs of CD24^−Sca-1^−AEC2s: promoted
[1]; AEC2s from bleomycin-treated WT mice, dose-dependent, vs control IgG or medium, FIGS. 10C-D
  CFEs of CD24^−Sca-1^−AEC2s: increased
